According to article PMC9236607, “TUBA1A tubulinopathy mutants disrupt neuron morphogenesis and override XMAP215/Stu2 regulation of microtubule dynamics” (eLife, 2022):

Target: T1, purified budding yeast tubulin heterodimer, Tub1-WT (internal 6X-His) with Tub2 (S. cerevisiae, UniProt P09733 1-447; P02557 1-457)
T1 construct: alpha-tubulin Tub1, S. cerevisiae, from pRS426-GAL-Tub1-internal 6X-His (Johnson et al., 2011); beta-tubulin Tub2, S. cerevisiae, untagged, from pRS424-GAL-Tub2 (Johnson et al., 2011); also called WT tubulin; WT yeast tubulin; source: S. cerevisiae JEL1 (protease deficient), overexpressed from GAL plasmids, purified (His60 Ni column, HiTrap Q)
T1 sequence (P09733 whole entry, chain 1 of 2): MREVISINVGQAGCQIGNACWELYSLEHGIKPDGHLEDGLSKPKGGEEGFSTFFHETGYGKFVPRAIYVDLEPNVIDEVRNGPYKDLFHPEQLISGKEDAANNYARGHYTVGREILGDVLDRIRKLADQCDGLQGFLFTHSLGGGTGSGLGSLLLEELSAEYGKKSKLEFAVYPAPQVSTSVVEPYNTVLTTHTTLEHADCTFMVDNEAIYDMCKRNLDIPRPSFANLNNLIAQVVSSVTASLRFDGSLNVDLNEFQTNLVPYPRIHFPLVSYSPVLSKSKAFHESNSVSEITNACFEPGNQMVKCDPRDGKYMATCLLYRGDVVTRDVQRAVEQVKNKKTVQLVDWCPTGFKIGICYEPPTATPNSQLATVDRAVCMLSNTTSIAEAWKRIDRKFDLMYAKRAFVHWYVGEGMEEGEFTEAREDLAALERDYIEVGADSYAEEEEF
T1 sequence (P02557 whole entry, chain 2 of 2): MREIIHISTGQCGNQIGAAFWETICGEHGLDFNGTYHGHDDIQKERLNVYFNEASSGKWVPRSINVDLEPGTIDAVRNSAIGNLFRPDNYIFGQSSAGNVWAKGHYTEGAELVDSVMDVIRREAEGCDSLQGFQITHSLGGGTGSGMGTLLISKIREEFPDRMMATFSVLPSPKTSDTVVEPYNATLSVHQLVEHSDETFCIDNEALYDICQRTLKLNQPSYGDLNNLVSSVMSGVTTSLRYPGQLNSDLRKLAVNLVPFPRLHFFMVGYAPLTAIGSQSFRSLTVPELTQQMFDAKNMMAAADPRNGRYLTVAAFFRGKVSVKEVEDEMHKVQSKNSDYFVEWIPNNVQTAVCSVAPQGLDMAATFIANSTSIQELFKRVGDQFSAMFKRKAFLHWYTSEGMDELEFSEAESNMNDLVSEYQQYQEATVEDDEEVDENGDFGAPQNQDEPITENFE
Assay: pull-down; 100 nM tubulin mixed with 9.8 nM to 5 µM GST-TOG1/2 at 4°C for 15 min, then glutathione magnetic agarose beads, 4°C, 1 hr; beads equilibrated in 125 mM Tris-HCl, 150 mM KCl, 1 mM DTT, 1 mM EDTA, pH 7.4; unbound tubulin left in the supernatant read by western blot for α- and β-tubulin
Settings: both partners purified

B1: GST-TOG1/2 (the two TOG domains of Stu2 fused to a GST tag, Stu2 1-590) (domain or fragment, S. cerevisiae, UniProt P46675 1-590, looked up)
chain: MSGEEEVDYTTLPLEERLTYKLWKARLEAYKELNQLFRNSVGDISRDDNIQIYWRDPTLFAQYITDSNVVAQEQAIVALNSLIDAFASSSLKNAHNITLISTWTPLLVEKGLTSSRATTKTQSMSCILSLCGLDTSITQSVELVIPFFEKKLPKLIAAAANCVYELMAAFGLTNVNVQTFLPELLKHVPQLAGHGDRNVRSQTMNLIVEIYKVTGNNSDLLEEILFKKLKPIQVKDLHKLFAKVGDEPSSSKMLFEWEKRELEKKRSQEEEARKRKSILSNDEGEYQIDKDGDTLMGMETDMPPSKQQSGVQIDTFSMLPEETILDKLPKDFQERITSSKWKDRVEALEEFWDSVLSQTKKLKSTSQNYSNLLGIYGHIIQKDANIQAVALAAQSVELICDKLKTPGFSKDYVSLVFTPLLDRTKEKKPSVIEAIRKALLTICKYYDPLASSGRNEDMLKDILEHMKHKTPQIRMECTQLFNASMKEEKDGYSTLQRYLKDEVVPIVIQIVNDTQPAIRTIGFESFAILIKIFGMNTFVKTLEHLDNLKRKKIEETVKTLPNFSIASGSTHSTIETNKQTGPMENKFLLK
notes: Stu2 (yeast homologue of XMAP215), S. cerevisiae, residues 1-590 with the TOG1 and TOG2 domains, from pGEX-6P-1 Stu2 1-590 (Widlund et al., 2012); also called Stu2 TOG1/2 domains; Stu2 TOG1/TOG2 domains; source: E. coli BL21, purified (GSTrap HP, eluted with reduced glutathione); not shown: GST, N-terminal, kept
- binding result: binds
